Here are results for two substances from paper PMC5324736.

Assay [1] concerns the target eIF2•GDPNP•Met-tRNAi ternary complex. Put plainly: native gel or EMSA.
For assay [2] the target is unchanged. Put plainly: native gel or EMSA. This is another data set of the same source. A general note: In EMSA bound probe runs differently from free probe, usually more slowly.

Read-outs that look alike come from different tables or passages of the source.

Broadly, the Kd is the equilibrium constant for the complex coming apart. For the substance “40S ribosomal subunit, sucrose cushion preparation (complex)”, the Kd in assay [1] was 0.013 µM; in assay [2], under 0.001 µM.
Turning to “40S ribosomal subunit, anion exchange column preparation (complex)”, the equilibrium dissociation constant (Kd) in assay [1] was 0.014 µM; in assay [2] it was under 0.001 µM.
